Measurements taken from the supplement of paper PMC7125110.
± gives the standard error. For some assays here: Fewer inactive variants are shown than the library holds.

B1: glmS ribozyme (parent)
chain: AUAAAAGCGCCAGAACUACAGAAAUGUAGUUGACGAGGAGGAGGUUUAUCGAAUUUUCGGCGGAUGCCUCCAAA

Experiments:
Conditions in all cases: with glucosamine-6-phosphate
glucosamine-6-phosphate [1] = variants of: B1; experiment: kcat; higher = faster cleavage; RNA array
How it was run: (§1)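 Sequenced MiSeq chips were the platform: E. coli RNA polymerase transcribed barcoded ribozyme variants on them in situ, and a hybridised Cy3 probe tracked these at 37 °C. After glucosamine-6-phosphate (40 μM to 10 mM) in HEPES/KCl/Mg(OAc)2 buffer was flowed in, tiles were imaged over ~14 h. Signals normalised to baseline and to non-cleaving reference variants were reduced to per-tile medians and fit to one- or two-exponential decays to obtain kobs. kcat and KM were derived through weighted Michaelis–Menten fits across concentrations.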

glucosamine-6-phosphate [2] = variants of: B1; experiment: self-cleavage kobs at 40 uM GlcN6P; higher = faster cleavage; RNA array
How it was run: as §1

glucosamine-6-phosphate [3] = variants of: B1; experiment: self-cleavage kobs at 10000 uM GlcN6P; higher = faster cleavage; RNA array
How it was run: as §1

glucosamine-6-phosphate [4] = variants of: B1; experiment: KM; higher = weaker cofactor use; RNA array
How it was run: as §1

glucosamine-6-phosphate [5] = variants of: B1; experiment: self-cleavage kobs at 160 uM GlcN6P; higher = faster cleavage; RNA array
How it was run: as §1

glucosamine-6-phosphate [6] = variants of: B1; experiment: self-cleavage kobs at 640 uM GlcN6P; higher = faster cleavage; RNA array
How it was run: as §1

glucosamine-6-phosphate [7] = variants of: B1; experiment: self-cleavage kobs at 2500 uM GlcN6P; higher = faster cleavage; RNA array
How it was run: as §1

| Variant | kcat (glucosamine-6-phosphate [1]) [s⁻¹] | self-cleavage kobs at 40 uM GlcN6P (glucosamine-6-phosphate [2]) [s⁻¹] | self-cleavage kobs at 10000 uM GlcN6P (glucosamine-6-phosphate [3]) [s⁻¹] | KM (glucosamine-6-phosphate [4]) [µM] | self-cleavage kobs at 160 uM GlcN6P (glucosamine-6-phosphate [5]) [s⁻¹] | self-cleavage kobs at 640 uM GlcN6P (glucosamine-6-phosphate [6]) [s⁻¹] | self-cleavage kobs at 2500 uM GlcN6P (glucosamine-6-phosphate [7]) [s⁻¹] |
| --- | --- | --- | --- | --- | --- | --- | --- |
| A14C G44A | 0.000834 ± 0.00022 | < 1e-05 | 4.02e-05 ± 1.1e-05 | – | – | – | – |
| A15G U49A | 1.35e-05 ± 1.2e-06 | – | – | 1230 ± 550 | < 1e-05 | – | – |
| U30A U31G | 0.0198 ± 0.0021 | 0.000379 ± 4.9e-05 | 0.0178 ± 0.003 | 2040 ± 290 | 0.00148 ± 0.00031 | 0.00508 ± 0.0011 | 0.00933 ± 0.0019 |
| A15U C67U | 0.00194 ± 0.00074 | 5.32e-05 ± 6.3e-06 | 0.00167 ± 0.00023 | – | 0.000161 ± 1.7e-05 | 0.000409 ± 3.4e-05 | 0.00189 ± 0.00029 |
| C16G C70G | 5.91e-05 ± 5.2e-06 | – | 5.09e-05 ± 9.5e-06 | – | – | 5.48e-05 ± 9.9e-06 | 6.29e-05 ± 9.7e-06 |
| A14U U45G | 0.00111 ± 0.00014 | – | 0.000917 ± 0.00013 | 1850 ± 400 | 8.17e-05 ± 2.1e-05 | 0.00033 ± 5.4e-05 | 0.000633 ± 0.00013 |
| A14U G41C | 8.09e-05 ± 1.1e-06 | – | 6.58e-05 ± 1.4e-05 | 2290 ± 95 | – | – | 4.2e-05 ± 1.3e-05 |
| A53G C68A | 5.55e-05 ± 7.9e-06 | – | 4.54e-05 ± 7.8e-06 | – | 5.86e-05 ± 1.5e-05 | 6.08e-05 ± 1.2e-05 | 6.36e-05 ± 1e-05 |
| U30G U65G | 0.00191 ± 0.00048 | – | 0.00155 ± 0.00019 | 3590 ± 1400 | 8.07e-05 ± 1.4e-05 | 0.000378 ± 6e-05 | 0.000614 ± 0.0001 |
| U30A C50A A52G | < 1e-05 | – | < 1e-05 | 39.4 ± 20 | – | < 1e-05 | – |
| A39U C50U | 4.51e-05 ± 4.1e-06 | – | 3.95e-05 ± 7.1e-06 | 1250 ± 570 | – | – | 3.23e-05 ± 9.4e-06 |
| G13A G60U | < 1e-05 | – | < 1e-05 | – | – | – | – |
| G40C C67U | 0.000108 ± 1.3e-05 | – | 8.8e-05 ± 7e-06 | – | – | – | 7.55e-05 ± 1.5e-05 |
| A33U A39G | 0.00016 ± 3.8e-05 | – | 0.000108 ± 1.3e-05 | – | < 1e-05 | – | 6.65e-05 ± 2.8e-05 |
| C16A U54A | 0.0017 ± 0.00051 | 5.13e-05 ± 1.3e-05 | 0.00169 ± 0.00028 | 2150 ± 940 | 0.000136 ± 2.6e-05 | 0.000351 ± 4.9e-05 | 0.00076 ± 0.00015 |
| G13U G66U | 3.6e-05 ± 2.5e-06 | – | 2.65e-05 ± 1.1e-05 | 3580 ± 630 | – | – | – |
